We go through one molecule from patent publication US20230130599A1 (BEIJING QL BIOPHARMACEUTICAL, published 2023).

The target of this assay is T1, human GFRAL (human, UniProt Q6UXV0 19-394).
T1 sequence (looked up): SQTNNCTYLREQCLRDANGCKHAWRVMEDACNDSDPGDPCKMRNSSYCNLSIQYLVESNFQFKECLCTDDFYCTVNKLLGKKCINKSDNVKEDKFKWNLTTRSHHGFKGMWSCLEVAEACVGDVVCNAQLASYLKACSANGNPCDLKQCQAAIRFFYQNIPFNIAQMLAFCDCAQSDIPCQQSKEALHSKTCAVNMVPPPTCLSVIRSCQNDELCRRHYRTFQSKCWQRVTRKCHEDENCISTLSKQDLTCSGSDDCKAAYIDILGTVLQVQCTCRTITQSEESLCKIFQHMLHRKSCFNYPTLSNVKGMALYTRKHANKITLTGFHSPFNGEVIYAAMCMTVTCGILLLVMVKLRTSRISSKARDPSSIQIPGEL
The assay can be described thus: cell-based or functional assay.

B1: Native GDF15 (SEQ ID NO: 9) (ligand)
chain: ARNGDHCPLGPGRCCRLHTVRASLEDLGWADWVLSPREVQVTMCIGACPSQFRAANMHAQIKTSLHRLKPDTVPAPCCVPASYNPMVLIQKTDTGVSLQTYDDLLAKDCHCI
Consider B1, for which the “1% HSA GDF15 activity (EC50, pM); SRE luciferase reporter” value is 8.2 pM and the “HSA free GDF15 activity (EC50, pM); SRE luciferase reporter” value was found to be 10.3 pM.
